Measurements taken from article PMC5869024.
Like-named read-outs stand apart in the source and are kept apart here.

Columns and labels:
[1] = target: CXCR1 extracellular loop peptide two linked extracellular loops (Homo sapiens) (UniProt P25024); conditions: cited from earlier work
ND-CXCR1(1–38) [2] = target: ND-CXCR1(1–38) (UniProt P25024); experiment: ITC
[3] = target: 1TM-CXCR1(1–72) reconstituted in nanodiscs (UniProt P25024); experiment: ITC
ND-CXCR1(1–38) [4] = target: ND-CXCR1(1–38) (UniProt P25024); experiment: ITC; remark: listed apart in the source

Sequence of ND-CXCR1(1–38) (P25024 1-38 C30S): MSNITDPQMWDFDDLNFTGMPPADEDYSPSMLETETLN
Sequence of 1TM-CXCR1(1–72) reconstituted in nanodiscs (P25024 1-72 C30S): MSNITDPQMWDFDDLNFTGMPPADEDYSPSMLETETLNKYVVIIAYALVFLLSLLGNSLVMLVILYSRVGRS
Sequence of IL-8 (P10145 28-99): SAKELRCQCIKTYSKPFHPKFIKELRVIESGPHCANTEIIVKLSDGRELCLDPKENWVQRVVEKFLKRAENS
Sequence of CXCR1 extracellular loop peptide two linked extracellular loops (Homo sapiens) (P25024 whole entry): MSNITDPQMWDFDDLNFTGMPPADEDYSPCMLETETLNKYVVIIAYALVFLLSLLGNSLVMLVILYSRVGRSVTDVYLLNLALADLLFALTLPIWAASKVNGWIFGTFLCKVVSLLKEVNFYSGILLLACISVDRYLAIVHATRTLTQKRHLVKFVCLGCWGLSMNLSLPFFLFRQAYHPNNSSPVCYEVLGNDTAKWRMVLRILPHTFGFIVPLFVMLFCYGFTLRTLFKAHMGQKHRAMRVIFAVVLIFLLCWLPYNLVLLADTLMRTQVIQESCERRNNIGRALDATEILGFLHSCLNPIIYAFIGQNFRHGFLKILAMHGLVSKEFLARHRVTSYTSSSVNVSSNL

Substance | Kd [1] [µM] | Kd (ND-CXCR1(1–38) [2]) [µM] | Kd [3] [µM] | dH [3] [kcal/mol] | Kd (ND-CXCR1(1–38) [4]) [µM] | dH (ND-CXCR1(1–38) [4]) [kcal/mol]
IL-8 (from UniProt P10145) | 0.5 |  |  |  |  | 
monomeric Interleukin-8 IL-8(1–66) (ligand) |  | 3.2 | 12.5 | -3.1 | 3.5 | -3.2
